Experiments:
[1] = target: mouse Izumo1, immobilized AVEXIS bait (UniProt Q9D9J7); test: AVEXIS; conditions: parent: est. 0.51; read off a plot
[2] = target: human Izumo1, immobilized AVEXIS bait (UniProt Q8IYV9); test: AVEXIS; conditions: parent: est. 0.16; read off a plot
human Izumo1, immobilized AVEXIS bait, sequence (Q8IYV9 22-350): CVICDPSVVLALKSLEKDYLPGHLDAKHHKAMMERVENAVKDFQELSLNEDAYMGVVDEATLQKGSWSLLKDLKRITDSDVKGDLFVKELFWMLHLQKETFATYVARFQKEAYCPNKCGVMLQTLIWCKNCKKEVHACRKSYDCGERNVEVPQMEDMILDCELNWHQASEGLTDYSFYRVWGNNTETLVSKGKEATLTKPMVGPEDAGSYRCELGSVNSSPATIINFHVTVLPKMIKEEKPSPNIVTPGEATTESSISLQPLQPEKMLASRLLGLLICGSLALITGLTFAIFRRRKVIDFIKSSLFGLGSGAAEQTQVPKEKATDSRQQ

mouse Izumo1, immobilized AVEXIS bait, sequence (Q9D9J7 22-397): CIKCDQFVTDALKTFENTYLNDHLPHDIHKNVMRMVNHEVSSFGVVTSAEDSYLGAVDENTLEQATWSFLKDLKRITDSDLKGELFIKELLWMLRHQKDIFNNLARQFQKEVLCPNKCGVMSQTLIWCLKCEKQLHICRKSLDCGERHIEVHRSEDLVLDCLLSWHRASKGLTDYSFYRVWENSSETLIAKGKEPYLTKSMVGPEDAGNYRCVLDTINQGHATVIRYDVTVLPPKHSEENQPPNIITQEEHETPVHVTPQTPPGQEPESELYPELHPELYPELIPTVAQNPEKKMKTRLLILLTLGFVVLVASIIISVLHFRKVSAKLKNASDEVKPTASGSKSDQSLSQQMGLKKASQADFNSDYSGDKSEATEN
mouse Juno, wild type, AVEXIS prey (from UniProt Q9EQF4) Loop1 (mouse Juno loop 1 replaced with the corresponding human residues), sequence (Q9EQF4 20-222, change not shown): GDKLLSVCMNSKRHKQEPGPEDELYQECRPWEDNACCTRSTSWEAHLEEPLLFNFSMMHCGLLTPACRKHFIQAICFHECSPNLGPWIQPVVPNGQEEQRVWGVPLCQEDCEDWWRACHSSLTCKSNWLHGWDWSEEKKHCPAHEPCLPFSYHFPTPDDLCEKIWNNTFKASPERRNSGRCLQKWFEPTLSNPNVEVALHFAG
mouse Juno, wild type, AVEXIS prey (from UniProt Q9EQF4) Loop 3 (mouse Juno loop 3 replaced with the corresponding human residues), sequence (Q9EQF4 20-222, change not shown): as above
mouse Juno, wild type, AVEXIS prey (from UniProt Q9EQF4) Loop 2 (mouse Juno loop 2 replaced with the corresponding human residues), sequence (Q9EQF4 20-222, change not shown): as above

| response [1] [A 485 nm] | response [2] [A 485 nm] | Substance |
| --- | --- | --- |
| 0.51 | 0.17 | mouse Juno, wild type, AVEXIS prey (from UniProt Q9EQF4) Loop 2 (mouse Juno loop 2 replaced with the corresponding human residues) |
| 0.52 | 0.51 | mouse Juno, wild type, AVEXIS prey (from UniProt Q9EQF4) Loop 3 (mouse Juno loop 3 replaced with the corresponding human residues) |
| 0.22 | 0.16 | mouse Juno, wild type, AVEXIS prey (from UniProt Q9EQF4) Loop1 (mouse Juno loop 1 replaced with the corresponding human residues) |
